{"source": "paper PMC12018189", "about": "“ATP synthesis of Enterococcus hirae V-ATPase driven by sodium motive force” (The Journal of Biological Chemistry, 2025)", "proteins": {"B1": {"name": "EhVoV1 (Enterococcus hirae V-ATPase) (Enterococcus hirae ATCC 9790) (protein)", "chain 1": "MQIGKIIKVSGPLVMAENMSEASIQDMCLVGDLGVIGEIIEMRQDVASIQVYEETSGIGPGEPVRSTGEALSVELGPGIISQMFDGIQRPLDTFMEVTQSNFLGRGVQLPALDHEKQWWFEATIEEGTEVSAGDIIGYVDETKIIQHKIMVPNGIKGTVQKIESGSFTIDDPICVIETEQGLKELTMMQKWPVRRGRPIKQKLNPDVPMITGQRVIDTFFPVTKGGAAAVPGPFGAGKTVVQHQIAKWSDVDLVVYVGCGERGNEMTDVVNEFPELIDPNTGESLMERTVLIANTSNMPVAAREASIYTGITIAEYFRDMGYDVAIMADSTSRWAEALREMSGRLEEMPGDEGYPAYLGSRLAEYYERSGRVIALGSDQREGSITAISAVSPSGGDISEPVTQNTLRVVKVFWGLDSSLAQKRHFPSINWIQSYSLYSTEVGRYMDQILQQDWSDMVTEGMRILQEEEQLNEIVRLVGIDSLSDNDRLTLEVAKSIREDYLQQNAFDDVDTFTSREKQFNMLKVILTFGKEARKALSLGAYFNEIMEGTVAVRERISRSKYIPEEELAKISSINEEIKETIQLIVSEGGMTDD", "chain 2": "MIKEYRTIKEVVGPLMAVEKVSGVKYEELIEVRMQNGEIRRGQVLEVQEDKAMVQIFEGTSGINLKNSSVRFLGHPLQLGVSEDMIGRVFDGLGRPKDNGPEILPEKYLDINGEVINPIARDYPDEFIQTGISAIDHLNTLVRGQKLPVFSGSGLPHKELAAQIARQATVLDSSDDFAVVFAAIGITFEEAEFFMEDFRQTGAIDRSVMFMNLANDPAIERIATPRMALTAAEYLAYEKGMHVLVIMTDMTNYAEALREISAARREVPGRRGYPGYLYTNLATLFERAGRIRGLKGSVTQIPILTMPEDDKTHPIPDLTGYITEGQIILTRELYKSGIQPPIDVLPSLSRLKDKGTGAGKTREDHAATMNQLFAAYAQGKQAKELAVVLGESALSDIDKIYAKFAERFENEYVNQGFYTNRTITETLDLGWELLAMLPRTELKRIKDDLLDKYLPEGK", "notes": "whole VoV1 complex, His tags on c-subunits, expressed in E. coli C41(DE3), DDM-solubilised, Ni-NTA and size exclusion, reconstituted into soybean phosphatidylcholine liposomes; with V-type sodium ATPase subunit D; V-type sodium ATPase subunit G; V-type sodium ATPase subunit E; V-type sodium ATPase subunit F; V-type sodium ATPase subunit C; V-type sodium ATPase subunit I; V-type sodium ATPase …"}}, "key": {"[1]": {"substrate": "O=P(O)(O)O", "assay": "purified protein", "settings": "ATP synthesis direction, 0.5 mM ADP, 5 mM MgCl2, pH 7.0, 25 °C, smf 269.3 mV (Δψ 154.7 mV, ΔpNa 114.6 mV)"}, "[2]": {"substrate": "Nc1ncnc2c1ncn2[C@@H]1O[C@H](COP(=O)(O)OP(=O)(O)O)[C@@H](O)[C@H]1O", "assay": "luciferin/luciferase luminescence assay of ATP synthesis, proteoliposomes", "type": "biochemical, Enterococcus hirae", "settings": "ATP synthesis direction, 74 mM Pi, 5 mM MgCl2, pH 7.0, 25 °C, smf 269.3 mV (Δψ 154.7 mV, ΔpNa 114.6 mV)", "text": "luciferin/luciferase luminescence assay of ATP synthesis, proteoliposomes on EhVoV1 (Enterococcus hirae V-ATPase)"}}, "data": [{"protein": "B1", "values": [{"measurement": "Km", "setting": "[1]", "result": "2100 ± 200", "unit": "µM"}, {"measurement": "kcat", "setting": "[1]", "result": 4.7, "unit": "s⁻¹"}, {"measurement": "Km", "setting": "[2]", "result": "21 ± 2", "unit": "µM"}, {"measurement": "kcat", "setting": "[2]", "result": 4.7, "unit": "s⁻¹"}]}]}
